Assay results taken from PMC1713233 (2006).

Biological target: T1, Trypsin Soybean Inhibitor (TSI) (Glycine max, UniProt P01070)
T1 chain: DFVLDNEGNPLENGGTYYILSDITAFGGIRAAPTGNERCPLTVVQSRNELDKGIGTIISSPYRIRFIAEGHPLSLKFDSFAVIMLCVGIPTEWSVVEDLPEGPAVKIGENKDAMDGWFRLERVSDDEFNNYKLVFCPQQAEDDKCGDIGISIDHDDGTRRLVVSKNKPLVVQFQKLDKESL
Experiment: enzyme inhibition assay (BAPNA substrate, Cheng-Prusoff)

Ki: 2180 nM
B1: Implantation serine proteinase complex (ISP1-ISP2) (protein)
chain 1: KPVGIVGGQRTPPGKWPWQVSLRMYSYEVNSWVHICGGSIIHPQWILTAAHCIQSQDADPAVYRVQVGEVYLYKEQELLNISRIIIHPDYNDVSKRFDLALMQLTALLVTSTNVSPVSLPKDSSTFDSTDQCWLVGWGNLLQRVPLQPPYQLHEVKIPIQDNKSCKRAYRKKSSDEHKAVAIFDDMLCAGTSGRGPCFGDSGGPLVCWKSNKWIQVGVVSKGIDCSNNLPSIFSRVQSSLAWIHQHIQ
chain 2: not shown
